Among the data in patent US20190218277A1 (Chugai, published 2019) are binding result and Kd values, retold here.

Broadly, the Kd is the constant that tells how readily two partners part at equilibrium.

Residue numbers refer to the chain shown, from its start.

B1: DG_3CH953-SG182/3CL633-SK1 (antibody, V domains shown)
VH: QVQLVQSGPDVEKPGASVKVSCKASGYTFTSNYIHWVRQAPGQGLEWMGVINPRGGSRRSAQKFQGRITMTRDTSTSTVYMELSSLRSEDTAVYYCARGGRALFYDSYTTPFDGGSWWFDPWGQGSLVTVSS
VL: DIQLTQSPSSLSASVGDRVTITCQASQDIRKYLNWYQQKPGKAPKLLIYDASNLKTGVPSRFSGSGSGTDFTLTISSLQPEDVATYYCQQFDDLPITFGQGTRLQIKR
B2: DG_3CH1000-SG182/3CL633-SK1 (antibody, V domains shown)
VH: B1 VH with N32Y, I34M
VL: B1 VL
B3: DG_3CH953-SG1095/3CL119-SK1 (antibody)
heavy: QVQLVQSGPDVEKPGASVKVSCKASGYTFTSNYIHWVRQAPGQGLEWMGVINPRGGSRRSAQKFQGRITMTRDTSTSTVYMELSSLRSEDTAVYYCARGGRALFYDSYTTPFDGGSWWFDPWGQGSLVTVSSASTKGPSVFPLAPSSKSTSGGTAALGCLVKDYFPEPVTVSWNSGALTSGVHTFPAVLQSSGLYSLSSVVTVPSSSLGTQTYICNVNHKPSNTKVDKRVEPKSCDKTHTCPPCPAPEAAGGPSVFLFPPKPKDTLMISRTPEVTCVVVDVSHEDPEVKFNWYVDGVEVHNAKTKPREEQYNSTYRVVSVLTVLHQDWLNGKEYKCKVSNAALPAPISKTISKAKGQPREPQVYTLPPSREEMTKNQVSLTCLVKGFYPSDIAVEWESNGQPENNYKTTPPVLDSDGSFFLYSKLTVDKSRWQQGNVFSCSVMHEALHNHYTQKSLSLSP
light: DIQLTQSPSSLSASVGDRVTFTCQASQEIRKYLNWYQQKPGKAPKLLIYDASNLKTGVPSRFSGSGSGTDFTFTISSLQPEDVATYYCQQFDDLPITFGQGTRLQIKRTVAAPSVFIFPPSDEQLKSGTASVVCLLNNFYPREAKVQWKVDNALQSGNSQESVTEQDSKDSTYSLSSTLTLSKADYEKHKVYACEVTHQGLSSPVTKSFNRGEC
B4: DG_3CH989-SG182/3CL668-SK1 (antibody, V domains shown)
VH: B1 VH with P9A, D10E, E12K, I68V
VL: B1 VL with D92E
B5: DG_3CH992-SG182/3CL119-SK1 (antibody, V domains shown)
VH: B1 VH with P9A, D10E, E12K, N32Y, I68V
VL: B1 VL with I21F, D28E, L73F
B6: DG_3CH989-SG182/3CL-SK1 (antibody, V domains shown)
VH: B1 VH with P9A, D10E, E12K, I68V
VL: B1 VL with I21F, L73F
B7: DG_3CH987-SG182/3CL119-SK1 (antibody, V domains shown)
VH: B1 VH with N32Y
VL: B1 VL with I21F, D28E, L73F
B8: DG_3CH953-SG182/3CL666-SK1 (antibody, V domains shown)
VH: B1 VH
VL: B1 VL with D28E
B9: DG_3CH992-SG182/3CL666-SK1 (antibody, V domains shown)
VH: B1 VH with P9A, D10E, E12K, N32Y, I68V
VL: B1 VL with D28E
B10: DG_3CH989-SG182/3CL012-SK1 (antibody, V domains shown)
VH: B1 VH with P9A, D10E, E12K, I68V
VL: B1 VL with I21F, L73F, D92E
B11: DG_3CH989-SG182/3CL633-SK1 (antibody, V domains shown)
VH: B1 VH with P9A, D10E, E12K, I68V
VL: B1 VL
B12: DG_3CH989-SG182/3CL666-SK1 (antibody, V domains shown)
VH: B1 VH with P9A, D10E, E12K, I68V
VL: B1 VL with D28E
B13: DG_3CH992-SG182/3CL012-SK1 (antibody, V domains shown)
VH: B1 VH with P9A, D10E, E12K, N32Y, I68V
VL: B1 VL with I21F, L73F, D92E
B14: DG_3CH992-SG182/3CL-SK1 (antibody, V domains shown)
VH: B1 VH with P9A, D10E, E12K, N32Y, I68V
VL: B1 VL with I21F, L73F
B15: DG_3CH953-SG1095/3CL012-SK1 (antibody, human IgG1, kappa, L234A L235A)
heavy: B3 heavy
light: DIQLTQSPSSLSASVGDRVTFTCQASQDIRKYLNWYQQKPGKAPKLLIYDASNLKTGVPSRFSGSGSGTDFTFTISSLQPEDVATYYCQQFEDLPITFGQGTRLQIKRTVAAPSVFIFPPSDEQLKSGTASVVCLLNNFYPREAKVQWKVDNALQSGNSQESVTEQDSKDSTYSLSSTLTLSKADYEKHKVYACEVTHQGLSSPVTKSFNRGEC
B16: DG_3CH953-SG182/3CL668-SK1 (antibody, V domains shown)
VH: B1 VH
VL: B1 VL with D92E
B17: DG_3CH992-SG182/3CL633-SK1 (antibody, V domains shown)
VH: B1 VH with P9A, D10E, E12K, N32Y, I68V
VL: B1 VL
B18: DG_3CH989-SG182/3CL119-SK1 (antibody, V domains shown)
VH: B1 VH with P9A, D10E, E12K, I68V
VL: B1 VL with I21F, D28E, L73F
B19: DG_3CH987-SG182/3CL012-SK1 (antibody, V domains shown)
VH: B1 VH with N32Y
VL: B1 VL with I21F, L73F, D92E
B20: DG_3CH987-SG182/3CL-SK1 (antibody, V domains shown)
VH: B1 VH with N32Y
VL: B1 VL with I21F, L73F
B21: DG_3CH953-SG1095/3CL-SK1 (antibody, human IgG1, kappa, L234A L235A)
heavy: B3 heavy
light: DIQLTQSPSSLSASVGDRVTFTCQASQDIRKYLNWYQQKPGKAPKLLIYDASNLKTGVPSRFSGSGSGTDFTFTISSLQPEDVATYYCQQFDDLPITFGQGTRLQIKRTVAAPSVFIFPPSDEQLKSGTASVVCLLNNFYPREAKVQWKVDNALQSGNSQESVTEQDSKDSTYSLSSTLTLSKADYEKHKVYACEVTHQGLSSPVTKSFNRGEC
B22: DG_3CH1047-SG1095/3CL-SK1 (antibody, human IgG1, kappa, L234A L235A)
heavy: B3 heavy with N32Y, I34M, R101E
light: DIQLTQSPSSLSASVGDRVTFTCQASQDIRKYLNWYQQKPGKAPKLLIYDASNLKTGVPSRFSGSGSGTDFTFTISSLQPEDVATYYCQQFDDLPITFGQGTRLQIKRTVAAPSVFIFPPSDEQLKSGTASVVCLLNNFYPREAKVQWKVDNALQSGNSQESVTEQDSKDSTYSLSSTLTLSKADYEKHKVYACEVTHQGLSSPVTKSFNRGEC
B23: DG_3CH953-SG1106/3CL-SK1 (antibody)
heavy: B3 heavy with M443L, N449A, Q453R, S455E
light: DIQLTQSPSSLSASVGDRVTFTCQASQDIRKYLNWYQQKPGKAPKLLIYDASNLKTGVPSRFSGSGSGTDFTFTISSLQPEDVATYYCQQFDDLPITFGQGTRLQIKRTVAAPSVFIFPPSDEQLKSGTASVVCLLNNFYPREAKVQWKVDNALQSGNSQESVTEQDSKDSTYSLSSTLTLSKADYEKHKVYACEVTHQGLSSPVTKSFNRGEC
B24: DG_3CH1047-SG1106/3CL-SK1 (antibody)
heavy: B3 heavy with N32Y, I34M, R101E, M443L, N449A, Q453R, S455E
light: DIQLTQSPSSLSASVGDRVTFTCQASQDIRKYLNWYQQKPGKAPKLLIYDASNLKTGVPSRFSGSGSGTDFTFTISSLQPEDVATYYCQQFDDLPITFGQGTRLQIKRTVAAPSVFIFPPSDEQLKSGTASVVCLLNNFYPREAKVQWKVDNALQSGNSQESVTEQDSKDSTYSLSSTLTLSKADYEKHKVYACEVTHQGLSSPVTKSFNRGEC

One experiment has as its target T1, Recombinant soluble E protein (0.8E-His) from DENV-2 (DENV-2, UniProt P14340 281-675).
T1 construct: also called DENV-2 E protein; DV2
In words: SPR, Biacore T200. (In general: Surface plasmon resonance follows binding to a sensor surface in real time, without labels.)
For the molecule B1, the binding result is “binds”.
B2: the binding result is “binds”.
As for B3, the binding result is “binds”.
As for B4, the binding result was “binds”.
The same measure, in the same setting: to B5 belongs “binds”.
Same read-out and setting: to B6 belongs “binds”.
As to B7, the binding result was “binds”.
For the molecule B8, the binding result was “binds”.
Turning to B9, the binding result was “binds”.
The same measure, in the same setting: to B10 belongs “binds”; to B11, “binds”; to B12, “binds”.
On to B13, for which the binding result is “binds”.
For the molecule B14, the binding result is “binds”.
On to B15, for which the binding result is on record as “binds”.
Same read-out and setting: next, B16: “binds”.
The same measure, in the same setting: next, B17: “binds”; B18: “binds”; B19: “binds”.
Regarding B20, the binding result is listed as “binds”.

The next experiment addresses T2, Recombinant soluble E protein (0.8E-His) from DENV-4 (DENV-4, UniProt P09866 280-674).
T2 construct: also called DENV-4 E protein; DV4
Put plainly: SPR, Biacore T200.
Take B1: the binding result is on record as “binds”.
Turning to B2, the binding result is reported as “binds”.
Regarding B3, the binding result is recorded as “binds”.
For the molecule B4, the binding result is “binds”.
With B5, the binding result is listed as “binds”.
For B6, the binding result was “binds”.
As to B7, the binding result was “binds”.
As to B8, the binding result is “binds”.
Regarding B9, the binding result is on record as “binds”.
B10: the binding result was “binds”.
On the same count and under the same terms, to B11 belongs “binds”; to B12, “binds”; to B13, “binds”.
With B14, the binding result is given as “binds”.
Turning to B15, the binding result is “binds”.
For the molecule B16, the binding result was “binds”.
The same measure, in the same setting: next, B17: “binds”; B18: “binds”; B19: “binds”.
With B20, the binding result was “binds”.

Another experiment has as its target T3, Recombinant soluble E protein (0.8E-His) from DENV-3 (DENV-3, UniProt P27915 281-673).
T3 construct: also called DENV-3 E protein; DV3
Experiment: not given
Regarding B1, the Kd was 4.96 pM.
Consider B2, for which the Kd worked out at 4.25 pM.
As for B21, the Kd came to 7.03 pM.
Still for that read-out and setting: to B22 belongs 2.93 pM; to B3, 7.18 pM.
Turning to B4, the Kd was determined as 3.03 pM.
With B5, the Kd is 0.515 pM.
For the molecule B6, the Kd came out at 0.448 pM.
On the same count and under the same terms, next, B7: 0.715 pM.
Turning to B8, the Kd was determined as 5.48 pM.
Regarding B9, the dissociation constant (Kd) came to 0.802 pM.
Take B10: the Kd was 0.0967 pM.
Turning to B11, the Kd stood at 2.37 pM.
Consider B23, for which the Kd was found to be 7.08 pM.
For the molecule B12, the Kd came out at 1.96 pM.
Regarding B13, the Kd came to 1.07 pM.
B14: the Kd was determined as 4.03 pM.
As for B15, the Kd turned out to be 5.53 pM.
Same read-out and setting: next, B16: 2.36 pM.
Still for that read-out and setting: next, B17: 2.95 pM.
Regarding B18, the dissociation constant (Kd) amounted to 6.83 pM.
On to B19, for which the Kd came to 2.67 pM.
In the case of B20, the Kd stood at 0.986 pM.
B24: the Kd was 4.71 pM.

The next experiment has as its target T4, Recombinant soluble E protein (0.8E-His) from DENV-1 (DENV-1, UniProt P27909 281-675).
T4 construct: also called DENV-1 E protein; DV1
Experiment: not given
In the case of B1, the Kd was found to be 1650 pM.
For B2, the Kd turned out to be 1770 pM.
On the same count and under the same terms, next, B21: 1790 pM; B22: 2090 pM.
The same measure, in the same setting: to B3 belongs 1990 pM.
As for B4, the Kd is 1500 pM.
With B5, the Kd stood at 1870 pM.
In the case of B6, the Kd is 1840 pM.
For B7, the Kd is 1530 pM.
As to B8, the dissociation constant Kd is 1690 pM.
Regarding B9, the Kd was 1390 pM.
Turning to B10, the Kd was 1520 pM.
The same measure, in the same setting: next, B11: 1540 pM; B23: 1850 pM; B12: 1500 pM.
As for B13, the Kd was 1720 pM.
The same measure, in the same setting: next, B14: 2020 pM.
Regarding B15, the Kd was determined as 1860 pM.
In the case of B16, the equilibrium dissociation constant (Kd) is 1680 pM.
Turning to B17, the Kd is 1270 pM.
As for B18, the Kd was 1530 pM.
As for B19, the Kd was found to be 1420 pM.
Consider B20, for which the Kd came out at 1820 pM.
On the same count and under the same terms, to B24 belongs 2120 pM.
